From IntAct's records for PubMed 17875931

Target: itf2_human TCF4 (UniProt P15884)
Sequence (P15884 whole entry): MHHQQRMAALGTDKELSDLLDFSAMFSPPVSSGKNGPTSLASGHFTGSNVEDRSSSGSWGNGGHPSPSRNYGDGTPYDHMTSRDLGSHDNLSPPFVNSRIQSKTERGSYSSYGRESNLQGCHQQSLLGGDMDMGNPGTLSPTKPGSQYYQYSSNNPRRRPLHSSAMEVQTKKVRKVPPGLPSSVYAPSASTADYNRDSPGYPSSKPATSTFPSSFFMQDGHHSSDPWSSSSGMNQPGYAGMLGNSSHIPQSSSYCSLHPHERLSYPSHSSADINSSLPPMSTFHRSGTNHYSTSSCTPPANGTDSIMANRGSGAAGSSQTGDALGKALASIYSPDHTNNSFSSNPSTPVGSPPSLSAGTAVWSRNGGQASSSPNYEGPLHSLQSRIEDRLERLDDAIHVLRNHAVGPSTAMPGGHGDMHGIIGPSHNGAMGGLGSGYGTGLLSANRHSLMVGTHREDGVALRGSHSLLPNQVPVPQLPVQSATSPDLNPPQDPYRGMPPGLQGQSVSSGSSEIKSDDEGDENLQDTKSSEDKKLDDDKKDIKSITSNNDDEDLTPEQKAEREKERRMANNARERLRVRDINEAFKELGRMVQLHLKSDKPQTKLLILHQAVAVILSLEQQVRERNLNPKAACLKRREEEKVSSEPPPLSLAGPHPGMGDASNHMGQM

Sequence of Transcription factor SOX-17 (Mus musculus), Q61473 G103R (Q61473 whole entry G103R): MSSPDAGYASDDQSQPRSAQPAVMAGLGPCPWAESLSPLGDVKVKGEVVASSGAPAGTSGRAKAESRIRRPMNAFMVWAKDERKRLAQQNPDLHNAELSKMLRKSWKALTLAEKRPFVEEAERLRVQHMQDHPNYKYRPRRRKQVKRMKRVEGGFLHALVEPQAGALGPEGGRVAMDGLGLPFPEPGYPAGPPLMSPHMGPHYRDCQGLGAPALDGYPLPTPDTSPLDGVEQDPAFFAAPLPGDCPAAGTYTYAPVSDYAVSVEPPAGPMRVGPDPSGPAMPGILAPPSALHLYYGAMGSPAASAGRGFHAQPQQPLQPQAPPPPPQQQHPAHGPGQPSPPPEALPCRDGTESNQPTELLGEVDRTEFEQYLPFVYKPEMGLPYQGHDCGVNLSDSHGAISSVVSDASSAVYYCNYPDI

effect of a mutation on the interaction: disrupting interaction
Substance: Transcription factor SOX-17 (Mus musculus), Q61473 G103R
